According to article PMC6197187:

Target: Recombinant human Tau-40 protein (human) (UniProt P10636)
Assay: solution binding assay, then SDS-PAGE and western blotting; 1 µg tau and 1 µg recombinant apoE incubated 1 h at 37 °C in 20 µl PBS (pH 7.4); ended with sample buffer without 2-mercaptoethanol, boiled 5 min; immunoblot for tau (HT7) and apoE

Recombinant human Tau-40 protein (human), sequence (P10636 other isoform, or with tags, fused parts or gaps): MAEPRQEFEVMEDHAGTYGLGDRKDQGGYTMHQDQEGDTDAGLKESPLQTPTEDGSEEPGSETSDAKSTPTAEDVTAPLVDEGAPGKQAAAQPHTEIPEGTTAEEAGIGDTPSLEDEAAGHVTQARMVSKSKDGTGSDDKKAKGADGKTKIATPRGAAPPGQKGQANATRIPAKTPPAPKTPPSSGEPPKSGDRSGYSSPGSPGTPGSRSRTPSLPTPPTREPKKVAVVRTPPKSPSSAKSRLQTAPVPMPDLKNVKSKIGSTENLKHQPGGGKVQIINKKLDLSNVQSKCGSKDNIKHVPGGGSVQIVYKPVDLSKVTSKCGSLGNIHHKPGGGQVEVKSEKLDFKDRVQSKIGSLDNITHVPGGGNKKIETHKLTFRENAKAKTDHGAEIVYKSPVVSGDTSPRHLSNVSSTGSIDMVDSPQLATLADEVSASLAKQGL

Substance: Recombinant human apoE2 protein (from UniProt P02649 19-317) (natural protein)
- N of band A: 2 tau per apoE
- N of band B: 2 apoE per tau
